This assay deals with 14-3-3ε (UniProt P62259). Put plainly: GST-14-3-3ε pull-down from neuronal lysate. The following applies: reference: wild-type CRTC1270.

For “CRTC1 (CRTC1270 reporter) 1-270 (from UniProt Q68ED7) S64A”, the “binding against the reference” value (sites S64) is “weaker”.

For “CRTC1 (CRTC1270 reporter) 1-270 (from UniProt Q68ED7) S64A/S151A/S245A”, the “binding against the reference” value (sites S64,S151,S245) is “lost”.

“CRTC1 (CRTC1270 reporter) 1-270 (from UniProt Q68ED7) S151A”: where the note is “sites S151”, the “binding against the reference” value is “weaker”.

Turning to “CRTC1 (CRTC1270 reporter) 1-270 (from UniProt Q68ED7) S245A”, where the note is “sites S245”, the “binding against the reference” value was “weaker”.

The record behind these values is publication PMC4560099.
